Assay results reported in patent publication US20250339531A1, “DUX4 POLYPEPTIDES AND NUCLEIC ACIDS FOR TREATING INFLAMMATORY AND AUTOIMMUNE CONDITIONS” (Fred Hutchinson Cancer Center, priority 2021, published 2025).

What was measured:
[1] = molecular target: 60S ribosomal protein L3 (Homo sapiens) (UniProt P39023); test: anti-FLAG co-IP LC-MS, exp 3, +Dox
[2] = molecular target: Elongation factor 1-gamma (Homo sapiens) (UniProt P26641); test: anti-FLAG co-IP LC-MS, exp 3, +Dox
Sequence of Elongation factor 1-gamma (Homo sapiens) (P26641 2-437 limits assumed): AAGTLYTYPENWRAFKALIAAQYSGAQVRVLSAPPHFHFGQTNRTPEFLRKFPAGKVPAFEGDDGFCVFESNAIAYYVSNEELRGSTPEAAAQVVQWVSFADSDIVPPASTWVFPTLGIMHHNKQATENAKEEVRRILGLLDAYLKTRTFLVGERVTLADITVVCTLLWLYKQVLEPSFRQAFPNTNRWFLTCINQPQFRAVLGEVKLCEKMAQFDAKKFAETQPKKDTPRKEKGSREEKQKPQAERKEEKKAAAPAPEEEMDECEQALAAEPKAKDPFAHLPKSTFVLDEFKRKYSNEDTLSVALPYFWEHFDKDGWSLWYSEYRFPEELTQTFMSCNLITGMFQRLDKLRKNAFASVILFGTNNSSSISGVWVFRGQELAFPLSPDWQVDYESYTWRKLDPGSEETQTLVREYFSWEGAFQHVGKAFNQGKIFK

Substance: i3XFLAG-NLS-CTDaa154-424
- PSMs [1]: 3 PSMs
- PSMs [2]: 3 PSMs
